Our source for the Kd, koff and kon values is US20200277377A1 (WUXI BIOLOGICS SHANGHAI, published 2020).

One test deals with T1, human CTLA-4.ECD-6×His (human, UniProt P16410 36-161).
T1 construct: extracellular domain; also called WBP316.hCTLA-4.ECD-6×His; hCTLA4-His (WT)
T1 sequence: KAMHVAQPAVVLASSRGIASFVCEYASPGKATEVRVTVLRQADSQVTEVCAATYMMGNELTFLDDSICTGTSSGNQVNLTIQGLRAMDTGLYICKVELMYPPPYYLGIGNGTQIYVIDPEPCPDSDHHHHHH
Put plainly: SPR, antibody captured on anti-human Fc, CTLA-4.ECD-6×His as analyte, 1:1 fit. On the procedure: (§1) Biacore T200, Series S Sensor Chip CMS, Amine Coupling Kit, and 10×HBS-EP were purchased from GE Healthcare. […] In immobilization step, the activation buffer was prepared by mixing 400 mM EDC and 100 mM NHS immediately prior to injection. The CM5 sensor chip was activated for 420 s with the activation buffer. 30 μg/mL of goat anti-human IgG Fcγ antibody in 10 mM NaAc (pH 4.5) was then injected to Fc1-Fc4 channels for 200 s at a flow rate of 5 μL/min. The chip was deactivated by 1 M ethanolamine-HCl (GE). Then the antibodies were captured on the chip. Briefly, 4 μg/mL antibodies in running buffer (HBS-EP+) was injected individually to Fc3 channel for 30 s at a flow rate of 10 μL/min. […] Regeneration buffer (10 mM Glycine pH 1.5) was injected at 10 μL/min for 30 s following every dissociation phase.
(§2) The binding kinetics of these antibodies were measured using SPR. The antibodies were captured on immobilized anti-human Fc and CTLA-4-ECD at different concentration was injected orderly. The sensorgrams for reference channel and buffer channel were subtracted from the test sensorgrams. The data was used for 1:1 binding analysis on human, monkey and mouse CTLA-4.ECD-6×His.

The target of test [1] is T2, cynomolgus monkey CTLA-4 ECD-6×His (cynomolgus monkey).
T2 construct: extracellular domain; Bought; also called cynomoguls monkey CTLA-4.ECD-6×His
The description is as above. On the procedure: as §1, §2

B1: W3162_1.145.10-z7-uAb.IgG1K (antibody, V domains shown)
VH: EVQLVESGGGLVQPGGSLRLSCAASDLTFSNYDMAWVRQAPGKGLEWVASISPSGGNTYYRDSVKGRFTISRDNAKNSLYLQMNSLRAEDTAVYYCARHLWFAYWGQGTLVTVSS
VL: DIQMTQSPSSLSASVGDRVTITCQASQDIGSNLIWFQQKPGKAPKPMIYYATHLADGVPSRFSGSRSGTDYTLTISSLQPEDFATYYCLQYKQYPRTFGGGTKVEIK
notes: Humanized; label says IgG1K; also called W145
As to B1, in the test with human CTLA-4.ECD-6×His, the Kd came out at 1.84 nM, the koff stood at 0.0135 s⁻¹ and the kon worked out at 7.37e+06 M⁻¹ s⁻¹. In test [1], the Kd stood at 0.598 nM, the koff was 0.00271 s⁻¹ and the kon was 4.52e+06 M⁻¹ s⁻¹.

One may read the Kd as the concentration at which binding is half-saturated. The koff is the first-order rate constant of dissociation. Broadly, the kon is the second-order rate constant of association.
